Patent US20250129169A1 (Stanford University, published 2025)

T1: Human γC ECD (human, UniProt P31785 23-262, biotinylated (site not stated))
T1 construct: extracellular domain; Biotinylated and held on a streptavidin chip for SPR; also called common gamma; biotinylated human γC ECD
T1 sequence (looked up): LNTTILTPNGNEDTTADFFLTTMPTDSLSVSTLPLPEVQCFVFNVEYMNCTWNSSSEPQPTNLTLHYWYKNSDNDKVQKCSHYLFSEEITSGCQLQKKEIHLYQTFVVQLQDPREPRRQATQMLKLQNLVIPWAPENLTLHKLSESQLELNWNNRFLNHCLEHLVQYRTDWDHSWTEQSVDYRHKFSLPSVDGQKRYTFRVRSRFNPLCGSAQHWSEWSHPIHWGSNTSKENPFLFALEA


Key:
[1] = molecular target: T1, Human γC ECD; test: SPR; biotinylated human γc ECD on streptavidin chip, VHH as analyte; KD from fit to steady-state responses [Cont.]
Protocol: (§1) FIGS. 2A-2H show data on SPR validation of IL-2Rβ- and γc-VHHs and agonist screening in YT-1 cells. (A) Biotinylated human IL-2Rβ ECD was immobilized on a streptavidin (SA) sensor chip, and varying concentrations of IL-2Rβ VHH were applied to determine binding parameters using SPR. Sensorgrams are shown on the left, and steady state binding is plotted on the right. Binding affinities (KD) were determined by fitting to steady state response values. (B) Biotinylated human γC ECD was immobilized on a SA chip, and varying concentrations of γc VHH were flowed over the chip to determine binding. […] (C) Steady-state binding affinities between VHH/scFv and IL-2R, as determined by SPR. Values for scFv affinities are derived from patent US20160367664A1 (Wang et al., 2016). (D) Table of pSTAT5 Eₘₐₓ values for the indicated VHH pairings. (E) Tuning IL-2 activity via generation of acid-base VHH zipper pairings. (F) Tuning IL-2 activity via generation of 2:1 β:γc or γc:β stoichiometries. VHH binding modules are linked together in a tripartite (β-γc-β or γc-β-γc) manner. Graph axes are represented as in (E). (G) Dose-response relationship of pSTAT5 geometric mean flurorescence intensities (gMFI) of selected agonists. (H) Corresponding histograms showing STAT5 activity in YT-1 cells treated with human IL-2 vs. IL-2 surrogate agonists at saturating concentration.

[2] = molecular target: T1, Human γC ECD; test: SPR, steady-state binding affinity (drawn table)
Protocol: as §1

[3] = molecular target: T1, Human γC ECD; test: drawn table of affinities; the scFv value is derived from patent US20160367664A1 (Wang et al., 2016), not measured in this filing

Row | Binder | Kd [1] [nM] | Kd [2] [nM] | Kd [3] [nM]
1 | γc-VHH3 (VHH, also called γC nanobody clone 3) VHH: QVQLQESGGGSVQAGGSLRLSCAASGYTYSKNWYMGWFRQTPGKEREGVAVIAYDDWPTYADSVKGRFTISKDNTKNTLYLQMNSLKPEDTAMYYCAARQLGGDYCYFPNLSRFCYNYWGQGTQVTVSS | 6.7 | 7 | 
2 | γc-VHH4 (VHH, also called γC nanobody clone 4) VHH: QVQLQESGGGSVQAGGSLRLSCTASGFTFNEANHMGWYRQAPGNECELVSTISSDGTTYYPDSVKGRFTISQDNAKKTAFLQMNSLKPEDTAVYYCAADQSRRGSLCLGQGTQVTVSS | 19.7 | 20 | 
3 | γc-VHH6 (VHH, also called γC nanobody clone 6) VHH: QVQLQESGGGSVQAGGSLRLSCAASGYTYRDYYMGWFRQAPGREREGVASIYTRGSREGSTRYSSSVEGRFTITLDTAKNTLYLQMNSLKPEDTAMYYCAADDRTWLPRVQLGGPRENEYNYWGQGTQVTVSS | 68.6 | 69 | 
4 | γ scFv2 (P2B9) (scFv, also called γc-scFv2 (P2B9)) scFv (VH-linker-VL): QVQLQESGPGLVKPSETLSLTCTVSGGSISSSSYYWGWIRQPPGKGLEWIGSIYYSGSTYYNPSLKSRVTISVDTSKNQFSLKLSSVTAADTAVYYCAGDILTGYALDYWGQGTLVTVSSGGGGSGGGGSGGGGSSYELTQPPSMSVSPGQTARITCSGDALPKQFAFWYQQKPGQAPVLVIYKDTERPSGIPERFSGSSSGTTVTLTITGVQAEDEADYYCQSPDSSGTVEVFGGGTKLTVL |  |  | 79
